These results are taken from US20120328625A1 (AstraZeneca / MedImmune, published 2012).

In test [1] the target is T1, Shh-N in conditioned medium (human, UniProt Q15465 24-197, N-terminal palmitoyl modification; lacks the C-terminal cholesterol moiety). Put plainly: cell-based or functional assay.
In test [2] the target is T2, Recombinant Human Sonic Hedgehog C24II amino terminal peptide (R&D Systems cat#1845-SH) (human, UniProt Q15465 24-197).
T2 construct: domain: amino terminal peptide; bought; also called Shh-C24II; C24II peptide
Put plainly: ELISA, apparent KD, purified antibody on immobilized Shh C24II. Background: In an ELISA, binding on a coated surface is turned into a signal by an enzyme label.
Description: (§1) The binding of purified antibodies to recombinant human Shh was determined using an ELISA-based method. The N-terminal signaling domain of Shh, Shh-N, was presented in two forms: as a purified protein isolated from bacteria lacking lipid modifications and as a constituent of conditioned medium in a form that contains the N-terminal palmitoyl modification but lacks the C-terminal cholesterol moiety.
(§2) The plates were sealed and placed on a shaker overnight at 5° C. The next day, the plates were washed 4 times with PBS with 0.05% Tween 20 (PBS-T). […] The plates were washed four times with PBS-T. Titrations of purified antibody (half log serial dilutions over at least six logs with a starting concentration of 30 μg/mL) were made in 100 μl PBS-T and added into wells and incubated with shaking overnight at 4° C. Antibody controls included human IgG2 and IgG4 (Sigma-Aldrich, Cat, #I5404 and #I4639, respectively). […] Following washing with PBS-T, the chemiluminescent Peroxidase substrate (Sigma cat# CPS-2-60) was added at room temperature and incubated for ten minutes with the plate covered by foil. Each well was read for 100 msec in the Spectromax 5e to determine RLU.

The target in test [3] is T1, Shh-N in conditioned medium. Description: ELISA, apparent KD, purified antibody on immobilized Shh-CM.
Description: as §1, §2
Test [4] deals with T2, Recombinant Human Sonic Hedgehog C24II …. Description: SPR (Biacore), IgG1 captured on protein G', human Shh as analyte, 1:1 Langmuir. In general terms: Surface plasmon resonance follows binding to a sensor surface in real time, without labels.
Description: (§3) Protein G was coupled to the CM5 chip surface using standard amine linkage chemistry. Protein G′ was cleared of Tris using a Dulbecco's PBS equilibrated PD-10 column. […] Approximately 500 RUs of protein G were covalently bound to the surface of flow chamber 2 (Fc2). […] Immobilization levels were reproducible between cycles.
Test [5] addresses T3, Recombinant Human/Mouse Indian Hedgehog C28II, amino terminal peptide (R&D Systems cat#1705-HH/CF) (human/mouse (100% sequence identity in …, UniProt Q14623 28-202)).
T3 construct: domain: amino terminal peptide; bought; also called Human/mouse Ihh; Ihh-N C28II
Description: SPR (Biacore), IgG1 captured on protein G', Ihh as analyte.
Description: as §3

Test [6] addresses T4, full length human Shh expressed on the cell surface (human, UniProt Q15465 24-462). Put plainly: cell-based or functional assay.
In test [7] the target is T1, Shh-N in conditioned medium. Put plainly: cell-based or functional assay. The source holds these as a separate data set.
The target in test [8] is T4, full length human Shh expressed on the …. Description: flow cytometry, exhaust hybridoma supernatant 1:10, 293T cells transiently expressing human Shh. On the technique in general: In flow cytometry, cells or beads pass a laser one at a time.
Description: Finally, binding of antibody in exhaust hybridoma supernatants to native Shh was assessed using flow cytometry. […] Transfected or parental cells were seeded into the plates with V-bottom wells (50,000 cells/well). Exhaust supernatants (50 μl of a 1:10 dilution) were added to each well and incubated at 4° C. for 1 hr. […] It was added to a concentration of 2 μg/ml in a volume of 50 μl. Cells were washed and 50 μl of a 2 μg/ml solution of secondary antibody (Cy5-labeled goat-anti-human IgG or Cy5-labeled goat-anti-rabbit IgG) were added to each well. 7AAD was added to a concentration of 5 μg/ml and the mixture was incubated for 30 min at RT. The mean fluorescence for each sample was then determined using flow cytometry.
Test [9] shares this target. Put plainly: flow cytometry, hybridoma-derived hIgG4 on HEK 293 cells stably expressing full length Shh; 95% CI ±40 pM.
Description: The binding affinity of the purified antibodies for full length Shh ectopically expressed on the surface of a pool of stable HEK 293 cells was determined using flow cytometry. […] Antibody was mixed with cells at approximately 74,000 cells/well in a final volume of 300 μl in a polypropylene microtiter plate. The plate was incubated with shaking for 5 hours at 4° C. […] The plates were shaken for 20 minutes at 4° C. The mean fluorescence of 10,000 events was recorded for each sample using FACS Canto II HTS flow cytometry instrumentation. A plot of the mean fluorescence as a function of antibody concentration was fit nonlinearly with Scientist 3.0 software to estimate KD.
The target in test [10] is T5, Recombinant Human Desert Hedgehog C23II, amino terminal peptide (R&D Systems cat#4777-HH) (human, UniProt O43323 23-198).
T5 construct: domain: amino terminal peptide; bought; also called Human Dhh
Description: ELISA, immobilized human Dhh, antibody 30 µg/ml to 1 pg/ml.
Description: The plates were washed four times with PBS-T. Titrations of purified antibody (half log serial dilutions over at least six logs with a starting concentration of 30 μg/mL) were made in 100 μl PBS-T and added into wells and incubated with shaking overnight at 4° C. Antibody controls included human IgG2 and IgG4 (Sigma-Aldrich, Cat, #I5404 and #I4639, respectively). […] Following washing with PBS-T, the chemiluminescent Peroxidase substrate (Sigma cat# CPS-2-60) was added at room temperature and incubated for ten minutes with the plate covered by foil. Each well was read for 100 msec in the Spectromax 5e to determine RLU.
After washing with PBS-T and blocking with 1% BSA, antibody titrations spanning concentrations of 30 μg/ml to 1 pg/ml prepared by half log serial dilution in PBS-T were added to wells and incubated with shaking overnight at 4° C.

In test [11] the target is T3, Recombinant Human/Mouse Indian Hedgehog …. Put plainly: ELISA, apparent KD, purified antibody on immobilized human/mouse Ihh.
Description: as §2
The target in test [12] is T1, Shh-N in conditioned medium. Put plainly: cell-based or functional assay. The source holds these as a separate data set.
Test [13] concerns the target T4, full length human Shh expressed on the …. Description: FMAT, hybridoma supernatant on 293T cells transiently expressing human Shh.
Description: Cells were maintained at 1×10⁶ cells/ml overnight at 37° C., 5% CO₂. […] Supernatants were added to each well (10 μl/well) and incubated 1.5 hrs at RT. […] Plates were read on the FMAT 8100 HTS system from Applied Biosystems. Total signal (FL1×count) is defined as the number of positive cells in a well (count) multiplied by the average fluorescence intensity of the positive cells (FL1).
Test [14] has the same target. Description: cell-based or functional assay. The source holds these as a separate data set.
The target in test [15] is T1, Shh-N in conditioned medium. Description: cell-based or functional assay. The source holds these as a separate data set.
In test [16] the target is T3, Recombinant Human/Mouse Indian Hedgehog …. Put plainly: cell-based or functional assay.
Test [17] has the same target. Description: SPR (Biacore), IgG1 captured on protein G', human/mouse Ihh as analyte, 1:1 Langmuir.
Description: as §3

B1: 3H8OP (antibody, V domains shown)
VH: QVQLVESGGGVVQPGRSLRLSCAASGFTFSTYGMHWVRQAPGKGLEWVAVIWYDGSNKYYADSVKGRFTISRDNSKNTLYLQMNSLRAEDTAVYYCARDLYYYGSGSPFDYWGQGTLVTVSS
VL: EIVMTQSPATLSVSPGERATLSCRASQSVSSNLAWYQQKPGQAPRLLIYGVSIRATGIPARFSGSGSGTEFTLTISSLQSEDFAVYYCQQYNNWPRPGFGGGTKVEIK
Consider B1, for which the “IC50, inhibition of osteoblast differentiation (alkaline phosphatase) of C3H10T1/2 cells” value in test [1] was found to be 5.6 nM. The figures for the Kd in [2], in test [3] and in test [4] were 0.082 nM, 0.685 nM and 0.0261 nM, respectively. In addition, the binding result in test [5] is “no binding”.

B2: 6D7 (antibody, V domains shown)
VH: QVQLQESGPGLVKPSQTLSLTCTVSGGSINSGGFYWSWIRQHPGKNLEWIGSIYYSGNTYYNPSLKSRVTISVDTSKNQFSLKLTSVTAADTAVYYCARGNDSGDYDWYFDLWGRGTLVTVSS
VL: SYELTQPPSVSVSPGQTASITCSGEKLGYKYVCWYQQKPGQSPVLVIFHDNKRPSGIPERFSGSNSGNTATLTISGAQAMDEADYYCQAGDSSAVFGGGTKLTVL
notes: fully human XenoMouse hybridoma antibody; also called MAb 6D7
For B2, in [6], the “% Inhibition of Gli1 reporter, Co-Culture N = 1, 20 µg/ml” value came to 80% and the “% Inhibition of Gli1 reporter, Co-Culture N = 2, 20 µg/ml” value stood at 68%. In addition, in test [7], the “% Inhibition of Gli1 reporter, Conditioned Media N = 1, 20 µg/ml” value stood at 89% and the “% Inhibition of Gli1 reporter, Conditioned Media N = 2, 20 µg/ml” value was determined as 111%. For the same molecule, in test [8], the “X Geo Mean (Transients)” value was 313. The “IC50, inhibition of osteoblast differentiation (alkaline phosphatase) of C3H10T1/2 cells” value in test [1] was found to be 5.3 nM. This molecule also yielded a Kd in test [9] of 0.107 nM. Further, the binding result in [10] is on record as “no binding”. Further, in test [11], the Kd was 0.052 nM. In test [12], the “IC50, inhibition of endogenous mouse Gli1 mRNA (qRT-PCR) in C3H10T1/2 cells” value amounted to 11.7 nM and the “IC50, inhibition of endogenous mouse Ptc1 mRNA (qRT-PCR) in C3H10T1/2 cells” value is 8.2 nM. Further, the Kd in test [2] was determined as 0.047 nM. Besides, in test [3], the Kd amounted to 0.06 nM. Moreover, in test [13], the “FL1 X COUNT” value was found to be 661000. For the same molecule, in test [14], the “% Inh of Gli1 reporter, Co-Culture N = 1” value worked out at 46% and the “% Inh of Gli1 reporter, Co-Culture N = 2” value was 22%. Further, in test [15], the “% Inh of Gli1 reporter, CM N = 1” value was -8% and the “% Inh of Gli1 reporter, CM N = 3” value was -1%.

B3: 6D7OP (antibody, IgG1, V domains shown)
VH: QVQLQESGPGLVKPSQTLSLTCTVSGGSINSGGFYWSWIRQHPGKGLEWIGSIYYSGNTYYNPSLKSRVTISVDTSKNQFSLKLSSVTAADTAVYYCARGQDSGDYDWYFDLWGRGTLVTVSS
VL: SYELTQPPSVSVSPGQTASITCSGEKLGYKYVSWYQQKPGQSPVLVIYHDNKRPSGIPERFSGSNSGNTATLTISGTQAMDEADYYCQAGDSSAVFGGGTKLTVL
Consider B3, for which the “IC50, inhibition of osteoblast differentiation of C3H10T1/2 cells induced by Ihh-N C28II (2 µg/ml)” value in test [16] is 16.3 nM. The results for the Kd in [17] and in [4] were 0.0342 nM and 0.003 nM, respectively.
